Test results reported in patent US20220306744A1 (CRESCENDO BIOLOGICS, published 2022).
Numbering of substitutions follows the chain as printed.

B1: 1.6a (VHH)
VHH: EVQLVESGGGVVQPGRSLRLSCAASGFTFSSYAMHWVRQAPGKGREWVSGISWNSGSMGYAESVKGRFTISRDNAKNSLYLQMNSLRAEDSALYYCVKDKGPGLTGTTADYYGMDVWGQGTTVTVSS
B2: 1.7a (VHH)
VHH: B1 VHH with V12I, S30D, S31D, S55G, K76Q
B3: 1.15a (VHH)
VHH: B1 VHH with V5L, V11L, A23T, S30D, S31D, T105I, T107S
B4: 1.17a (VHH)
VHH: EVQLLESGGGLVQPGGSLRLSCAASGFTFDDYAMHWVRQAPGKGLEWVSGISWNSGSMGYAASVKDRFTISRDNAKNSLYLQMNSLTTEDTALYYCVKDKGPGLIGSTADYHGLDVWGQGTTVTVSS
B5: 1.37a (VHH)
VHH: EVQLVESGGGLVQPGRSLRLSCAASGFTFDDYAFHWVRQAPGKDLEWVSGISWNGGSMGYADSVKGRFTISRDNAKNSLYLQMNSLRAEDTALYYCVREKGPGLTGSTADYYGLDAWGQGTMVTVSS
B6: 1.46a (VHH)
VHH: B5 VHH with F34L, G55A, M58Y
B7: 1.45a (VHH)
VHH: B5 VHH with F34L, G55A, M58Q
B8: 1.48a (VHH)
VHH: B5 VHH with F34L, G55S, M58Q
B9: 1.49a (VHH)
VHH: B5 VHH with G55S, M58Q
B10: 1.44a (VHH)
VHH: B5 VHH with F34L, G55S, M58Y
B11: 1.50a (VHH)
VHH: B5 VHH with G55A, M58Q
B12: 1.43a (VHH)
VHH: B5 VHH with G55A, M58Y
B13: 1.47a (VHH)
VHH: B5 VHH with G55S, M58Y
B14: 1.40a (VHH)
VHH: B5 VHH with F34L, M58Q
B15: 1.41a (VHH)
VHH: B5 VHH with M58Y
B16: 1.38a (VHH)
VHH: B5 VHH with F34L
B17: 1.42a (VHH)
VHH: B5 VHH with M58Q
B18: 1.39a (VHH)
VHH: B5 VHH with F34L, M58Y
notes: also called Humabody 1.39a
B19: 1.51a (VHH)
VHH: EVQLVESGGGVVRPGGSLRLSCAASGFTFDDYAMSWVRQAPGKGLEWVSGITWNGGSTGYADSVKDRFTISRDNAKNSLYLQMNSLRAEDTALYYCVRDKYSYAWSYDGFDIWGQGTMVTVSS
B20: 1.65a (VHH)
VHH: B19 VHH with M34Q, D66G
B21: 1.90a (VHH)
VHH: B19 VHH with M34W
B22: 1.77a (VHH)
VHH: B19 VHH with G55A, G109D
B23: 1.88a (VHH)
VHH: B19 VHH with M34G
B24: 1.76a (VHH)
VHH: B19 VHH with G55H, G109V
B25: 1.59a (VHH)
VHH: B19 VHH with E1Q, T52S, T58K, V97A, K100P, Y103G, G109A
B26: 1.66a (VHH)
VHH: B19 VHH with M34N, D66G
B27: 1.64a (VHH)
VHH: B19 VHH with M34F, D66G
B28: 1.71a (VHH)
VHH: B19 VHH with M34L, D66G
B29: 1.74a (VHH)
VHH: B19 VHH with G55S, G109D
B30: 1.89a (VHH)
VHH: B19 VHH with M34E
B31: 1.61a (VHH)
VHH: B19 VHH with E1Q, D31N, V97A, G109T, W113R
B32: 1.62a (VHH)
VHH: B19 VHH with G55A, D66G, G109D
notes: also called Humabody 1.62a
B33: 1.91a (VHH)
VHH: B19 VHH with M34R
B34: 1.80a (VHH)
VHH: B19 VHH with G55K, G109D
B35: 1.82a (VHH)
VHH: B19 VHH with M34I
B36: 1.58a (VHH)
VHH: B19 VHH with E1Q, V11L, R13Q, T52S, T58A, V97A, K100P, Y101H, Y103S, G109A
B37: 1.75a (VHH)
VHH: B19 VHH with G55Q, G109D
B38: 1.69a (VHH)
VHH: B19 VHH with M34W, D66G
B39: 1.83a (VHH)
VHH: B19 VHH with M34T
B40: 1.70a (VHH)
VHH: B19 VHH with M34V, D66G
B41: 1.60a (VHH)
VHH: B19 VHH with E1Q, T52S, V97A, K100P, Y103G, G109A
B42: 1.63a (VHH)
VHH: B19 VHH with G55R, D66G, G109D
B43: 1.67a (VHH)
VHH: B19 VHH with M34G, D66G
B44: 1.86a (VHH)
VHH: B19 VHH with M34S
B45: 1.87a (VHH)
VHH: B19 VHH with M34L
B46: 1.78a (VHH)
VHH: B19 VHH with D66G, G109V
B47: 1.81a (VHH)
VHH: B19 VHH with G55R, G109D
B48: 1.79a (VHH)
VHH: B19 VHH with D66G, G109D
B49: 1.85a (VHH)
VHH: B19 VHH with M34D
B50: 1.72a (VHH)
VHH: B19 VHH with M34S, D66G
B51: 1.73a (VHH)
VHH: B19 VHH with M34R, D66G
B52: 1.84a (VHH)
VHH: B19 VHH with M34N
B53: 1.68a (VHH)
VHH: B19 VHH with M34E, D66G

Biological target: T1, human PD-1 expressed on cells (CHO TREX human PD1 cell line, full-length human PD-1 sequence) (human, UniProt Q15116 21-288)
T1 construct: Also used for human PD-1 on Jurkat reporter cells, on PathHunter cells and on PHA-stimulated human CD4+ T cells; also called CHO human PD1 cells; CHO human PD-1 cells
Assay: worded summary of the screens

T1 sequence (Q15116 21-288): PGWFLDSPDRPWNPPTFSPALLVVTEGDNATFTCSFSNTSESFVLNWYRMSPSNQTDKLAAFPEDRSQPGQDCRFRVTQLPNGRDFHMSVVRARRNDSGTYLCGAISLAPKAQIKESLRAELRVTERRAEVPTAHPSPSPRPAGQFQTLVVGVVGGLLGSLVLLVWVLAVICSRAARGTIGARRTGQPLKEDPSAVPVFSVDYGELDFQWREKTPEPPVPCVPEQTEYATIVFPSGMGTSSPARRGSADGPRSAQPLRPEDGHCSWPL

Binding result, binds:
B1
B2
B3
B4
B5
B6
B7
B8
B9
B10
B11
B12
B13
B14
B15
B16
B17
B18
B19
B20
B21
B22
B23
B24
B25
B26
B27
B28
B29
B30
B31
B32
B33
B34
B35
B36
B37
B38
B39
B40
B41
B42
B43
B44
B45
B46
B47
B48
B49
B50
B51
B52
B53
